Data: the supplement of paper PMC7125110
± gives the standard error. For some assays here: This sample holds only a part of the variants without activity.

B1: glmS ribozyme (parent)
chain: AUAAAAGCGCCAGAACUACAGAAAUGUAGUUGACGAGGAGGAGGUUUAUCGAAUUUUCGGCGGAUGCCUCCAAA

Experiments:
Conditions in all cases: with glucosamine-6-phosphate
glucosamine-6-phosphate [1] = variants of: B1; assay: kcat; higher = faster cleavage; RNA array
Outline: (§1)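 Barcoded ribozyme variants on sequenced MiSeq chips were transcribed in situ by E. coli RNA polymerase and followed at 37 °C through a hybridised Cy3 probe. Glucosamine-6-phosphate at 40 μM to 10 mM in HEPES/KCl/Mg(OAc)2 buffer was flowed in, and tiles were imaged over ~14 h. Signals were normalised to baseline and to non-cleaving reference variants, and per-tile medians were fit to one- or two-exponential decays to give kobs. Weighted Michaelis–Menten fits across concentrations gave kcat and KM.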

glucosamine-6-phosphate [2] = variants of: B1; assay: KM; higher = weaker cofactor use; RNA array
Outline: as §1

glucosamine-6-phosphate [3] = variants of: B1; assay: self-cleavage kobs at 640 uM GlcN6P; higher = faster cleavage; RNA array
Outline: as §1

glucosamine-6-phosphate [4] = variants of: B1; assay: self-cleavage kobs at 2500 uM GlcN6P; higher = faster cleavage; RNA array
Outline: as §1

glucosamine-6-phosphate [5] = variants of: B1; assay: self-cleavage kobs at 10000 uM GlcN6P; higher = faster cleavage; RNA array
Outline: as §1

glucosamine-6-phosphate [6] = variants of: B1; assay: self-cleavage kobs at 160 uM GlcN6P; higher = faster cleavage; RNA array
Outline: as §1

glucosamine-6-phosphate [7] = variants of: B1; assay: self-cleavage kobs at 40 uM GlcN6P; higher = faster cleavage; RNA array
Outline: as §1

Variant | kcat (glucosamine-6-phosphate [1]) [s⁻¹] | KM (glucosamine-6-phosphate [2]) [µM] | self-cleavage kobs at 640 uM GlcN6P (glucosamine-6-phosphate [3]) [s⁻¹] | self-cleavage kobs at 2500 uM GlcN6P (glucosamine-6-phosphate [4]) [s⁻¹] | self-cleavage kobs at 10000 uM GlcN6P (glucosamine-6-phosphate [5]) [s⁻¹] | self-cleavage kobs at 160 uM GlcN6P (glucosamine-6-phosphate [6]) [s⁻¹] | self-cleavage kobs at 40 uM GlcN6P (glucosamine-6-phosphate [7]) [s⁻¹]
U56G G66C | 0.000388 ± 2.1e-05 | 1800 ± 300 | 9.51e-05 ± 3.1e-05 | 0.000244 ± 4.9e-05 | 0.000325 ± 3.9e-05 | – | –
U65A C68A | 8.88e-05 ± 1.5e-05 | – | 8.74e-05 ± 1.1e-05 | 0.00015 ± 2.2e-05 | 7.53e-05 ± 8.6e-06 | 5.78e-05 ± 1.6e-05 | –
G41A U54C | 0.000448 ± 5.8e-05 | 1810 ± 510 | 0.00013 ± 2.5e-05 | 0.000223 ± 4.7e-05 | 0.0004 ± 5.8e-05 | – | –
A12U G29A A52U | 0.000494 ± 0.00016 | – | 4.42e-05 ± 1.6e-05 | 0.00021 ± 6.6e-05 | 0.000309 ± 7.1e-05 | – | –
A15U A39G | 0.00892 ± 0.0027 | 1830 ± 730 | 0.0023 ± 0.00069 | – | 0.00943 ± 0.0017 | 0.000706 ± 0.00028 | 0.000203 ± 3.1e-05
U30C G41A | 1.28e-05 ± 1.8e-06 | – | < 1e-05 | – | – | – | –
C16U G44C | 6.71e-05 ± 2.3e-05 | – | 6.27e-05 ± 1.7e-05 | 2.88e-05 ± 1.4e-05 | 8.38e-05 ± 1.3e-05 | – | –
G43U U54A U55A C67G C68U | 0.000164 ± 6.5e-05 | – | – | – | 7.92e-05 ± 2.1e-05 | – | –
U56A U57C | 0.00014 ± 3.4e-06 | 2030 ± 160 | – | 7.84e-05 ± 1.5e-05 | 0.000115 ± 1.5e-05 | – | < 1e-05
C10U C61U G63A | < 1e-05 | – | – | – | < 1e-05 | – | –
G29C U54C | 0.00154 ± 0.00063 | – | 0.000301 ± 7.9e-05 | 0.000773 ± 0.00014 | 0.0019 ± 0.00032 | 0.000153 ± 2.5e-05 | 6.42e-05 ± 1.4e-05
C11U G38A G41A A42G | 1.14e-05 ± 5.7e-06 | – | – | – | – | < 1e-05 | < 1e-05
A12U C70U | 0.00743 ± 0.0034 | – | 0.0108 ± 0.0021 | 0.0055 ± 0.0012 | – | 0.0134 ± 0.0027 | 0.00232 ± 0.00023
G59C C68G | 2.78e-05 ± 1e-05 | – | – | – | – | – | –
C50A C61G C68G | 3.41e-05 ± 1.4e-05 | – | 6.76e-05 ± 1.9e-05 | – | 2.92e-05 ± 1.3e-05 | – | –
C34U U54C C68G | 1.64e-05 ± 4.9e-06 | – | – | – | – | – | –
A52U C67U | 0.000336 ± 2.3e-05 | 2300 ± 310 | 7.82e-05 ± 1e-05 | 0.000163 ± 2e-05 | 0.00028 ± 2.8e-05 | – | –
A14G G40A G41U G66A | 0.000815 ± 0.00014 | 2850 ± 980 | 0.000149 ± 3.6e-05 | 0.000356 ± 9.3e-05 | 0.000645 ± 0.0001 | – | –

Variant | kcat (glucosamine-6-phosphate [1]) [s⁻¹] | KM (glucosamine-6-phosphate [2]) [µM] | self-cleavage kobs at 640 uM GlcN6P (glucosamine-6-phosphate [3]) [s⁻¹] | self-cleavage kobs at 2500 uM GlcN6P (glucosamine-6-phosphate [4]) [s⁻¹] | self-cleavage kobs at 10000 uM GlcN6P (glucosamine-6-phosphate [5]) [s⁻¹] | self-cleavage kobs at 160 uM GlcN6P (glucosamine-6-phosphate [6]) [s⁻¹] | self-cleavage kobs at 40 uM GlcN6P (glucosamine-6-phosphate [7]) [s⁻¹]
G66U C70A | 7.35e-05 ± 1.3e-05 | – | 0.000101 ± 4.5e-05 | 8.96e-05 ± 3e-05 | 6.04e-05 ± 2e-05 | – | –
G29A A39U | 0.0047 ± 0.0016 | 3440 ± 1600 | 0.000731 ± 0.00013 | 0.00176 ± 0.0003 | 0.0037 ± 0.00049 | 0.000177 ± 3.4e-05 | 0.000107 ± 1.9e-05
A33U C67A | 7.68e-05 ± 3.3e-06 | 4870 ± 530 | – | 2.58e-05 ± 7.7e-06 | 5.17e-05 ± 6e-06 | – | –
A39U C58G | 0.000106 ± 3.3e-06 | 9290 ± 520 | – | 2.25e-05 ± 1e-05 | 5.48e-05 ± 1.2e-05 | – | –
C58U C67G | 3.65e-05 ± 2.5e-06 | – | 3.77e-05 ± 1.5e-05 | 3.68e-05 ± 1.4e-05 | 3.45e-05 ± 9.2e-06 | – | –
G13U A64G | 0.00128 ± 0.00031 | 4210 ± 1600 | 0.000149 ± 1.9e-05 | 0.000657 ± 6.9e-05 | 0.000847 ± 8.3e-05 | 4.62e-05 ± 1.2e-05 | –
U45C U46G | 0.00122 ± 0.00043 | 2110 ± 1100 | 0.000322 ± 8.8e-05 | 0.000911 ± 0.00015 | 0.000685 ± 0.00025 | 7.78e-05 ± 1.5e-05 | –
C16A C68A | 1.91e-05 ± 5.8e-06 | – | – | – | – | – | –
G66C U69G | 5.5e-05 ± 1.9e-05 | – | 8.02e-05 ± 1.2e-05 | 6.24e-05 ± 1.2e-05 | – | 4.18e-05 ± 1.2e-05 | –
G40A G41A | 0.000106 ± 2.5e-05 | – | 6.83e-05 ± 1.2e-05 | 0.000163 ± 2.3e-05 | 8.89e-05 ± 1e-05 | – | –
G7U G38C | < 1e-05 | – | < 1e-05 | – | < 1e-05 | – | < 1e-05
U47C C50U | 4.46e-05 ± 3.5e-07 | 1670 ± 52 | – | 2.69e-05 ± 1.3e-05 | 3.82e-05 ± 1.1e-05 | – | –
C10U C68G C70U | 7.35e-05 ± 2.9e-05 | – | 0.00013 ± 2.8e-05 | 5.98e-05 ± 1.4e-05 | – | 3.3e-05 ± 1.5e-05 | –
G44U U56A | 0.000132 ± 9e-06 | 2840 ± 550 | – | 6.59e-05 ± 1e-05 | 0.000102 ± 9.4e-06 | – | < 1e-05
U54G C61G | 1.78e-05 ± 5.8e-06 | – | – | – | – | – | < 1e-05
G13C C70U | 0.000154 ± 4.9e-06 | 1400 ± 140 | 4.57e-05 ± 8.9e-06 | 0.000103 ± 1.2e-05 | 0.000134 ± 1e-05 | – | –
G13U U47G | 0.000262 ± 5.2e-05 | 2420 ± 890 | 4.72e-05 ± 7.2e-06 | 0.000158 ± 1.5e-05 | 0.00019 ± 2.5e-05 | – | –
G32A A64G | 0.00438 ± 0.00041 | 6200 ± 820 | 0.000433 ± 5.6e-05 | 0.00144 ± 0.00035 | 0.00267 ± 0.00027 | 0.000104 ± 1.8e-05 | 2.33e-05 ± 9.5e-06
